Data as given in the RNAGym collection of RNA variant scans (doi:10.1101/gr.219683.116).

B1: mRNA-splicing (parent)
chain: AGUUGCUGCUGGGAGCUCCAGCACAGUGAAAUGGACAGAAGGGCAGAGCAA

Variants of: B1
Assay: exon inclusion enrichment index; higher = more inclusion; WT1 exon 5 minigene, HEK293

Variant	exon inclusion enrichment index
AGUUACCACCGGGAGCUCCAGCACAGUGAAGAGGACAGAAGGGCAGAGCAA	4.37
AGUUACCACCGGGAGCUCCAGCACAGUGAAGGGGACAGAAGGGCAGAGCAA	1.52
AGUUACCACCGGGAGCUCCAGCACAGUGAAGCGGACAGAAGGGCAGAGCAA	4.44
AGUUACCACCGGGAGCUCCAGCACAGUGAGCUGGACAGAAGGGCAGAGCAA	0.305
AGUUACCACCGGGAGCUCCAGCACAGUGAGUUGGACAGAAGGGCAGAGCAA	0.691
AGUUACCACCGGGAGCUCCAGCACAGUGAGGUGGACAGAAGGGCAGAGCAA	0.823
AGUUACCACCGGGAGCUCCAGCACAGUGAAGUGGACAGAAGGGCAGAGCAA	2.95
AGUUACCACCGGGAGCUCCAGCACAGUGAACUGGACAGAAGGGCAGAGCAA	2.89
AGUUACCACCGGGAGCUCCAGCACAGUGAAUUGGACAGAAGGGCAGAGCAA	2.07
AGUUACCACCGGGAGCUCCAGCACAGUGAAAUGGACGAAAGGGCAGAGCAA	2.19
AGUUACCACCGGGAGCUCCAGCACAGUGAAAUGGACGUAAGGGCAGAGCAA	0.991
AGUUACCACCGGGAGCUCCAGCACAGUGAAAUGGACGCAAGGGCAGAGCAA	2.62
AGUUACCACCGGGAGCUCCAGCACAGUGGCAUGGACAGAAGGGCAGAGCAA	1.32
AGUUACCACCGGGAGCUCCAGCACAGUGGGAUGGACAGAAGGGCAGAGCAA	1.92
AGUUACCACCGGGAGCUCCAGCACAGUGGUAUGGACAGAAGGGCAGAGCAA	0.757
AGUUACCACCGGGAGCUCCGUCACAGUGAAAUGGACAGAAGGGCAGAGCAA	2.6
AGUUACCACCGGGAGCUCCGCCACAGUGAAAUGGACAGAAGGGCAGAGCAA	2.62
AGUUACCACCGGGAGCUCCGACACAGUGAAAUGGACAGAAGGGCAGAGCAA	2.82
AGUUACCACCGGGUGCUCCAGCACAGUGAAAUGGACAGAAGGGCAGAGCAA	0.895
AGUUACCACCGGGGCCUCCAGCACAGUGAAAUGGACAGAAGGGCAGAGCAA	1.06
AGUUACCACCGGGGUCUCCAGCACAGUGAAAUGGACAGAAGGGCAGAGCAA	0.925
AGUUACCACCGGGGACUCCAGCACAGUGAAAUGGACAGAAGGGCAGAGCAA	1.8
AGUUACCACCGGGAGCUCCAGCACAGUGAAUCGGACAGAAGGGCAGAGCAA	3.11
AGUUACCACCGGGAGCUCCAGCACAGUGAAUAGGACAGAAGGGCAGAGCAA	0.229
AGUUACCACCGGGAGCUCCAGCACAGUGAAUGGGACAGAAGGGCAGAGCAA	1.32
AGUUACCACCGGGAGCUCCUACACAGUGAAAUGGACAGAAGGGCAGAGCAA	1.36

Variant	exon inclusion enrichment index
AGUUACCACCGGGAGCUCCUUCACAGUGAAAUGGACAGAAGGGCAGAGCAA	1.69
AGUUACCACCGGGAGCUCCUCCACAGUGAAAUGGACAGAAGGGCAGAGCAA	2.33
AGUUACCACCGGGAGCUCCCACACAGUGAAAUGGACAGAAGGGCAGAGCAA	0.984
AGUUACCACCGGGAGCUCCCUCACAGUGAAAUGGACAGAAGGGCAGAGCAA	1
AGUUACCACCGGGAGCUCCCCCACAGUGAAAUGGACAGAAGGGCAGAGCAA	0.722
AGUUACCACCGGGAGCUCCAGCACAGUGAUCUGGACAGAAGGGCAGAGCAA	2.13
AGUUACCACCGGGAGCUCCAGCACAGUGAUGUGGACAGAAGGGCAGAGCAA	2.36
AGUUACCACCGGGAGCUCCAGCACAGUGAUUUGGACAGAAGGGCAGAGCAA	1.86
AGUUACCACCGGGAGCUCCAGCACAGUGAAAUGGACUCAAGGGCAGAGCAA	1.52
AGUUACCACCGGGAGCUCCAGCACAGUGAAAUGGACUAAAGGGCAGAGCAA	0.876
AGUUACCACCGGGAGCUCCAGCACCUUGAAAUGGACAGAAGGGCAGAGCAA	2.86
AGUUACCACCGGGAGCUCCAGCACCCUGAAAUGGACAGAAGGGCAGAGCAA	2.75
AGUUACCACCGGGAGCUCCAGCACCAUGAAAUGGACAGAAGGGCAGAGCAA	4.29
AGUUACCACCGGGAGCUCCAGCACAGUGUUAUGGACAGAAGGGCAGAGCAA	0.907
AGUUACCACCGGGAGCUCCAGCACAGUGUGAUGGACAGAAGGGCAGAGCAA	2.78
AGUUACCACCGGGAGCUCCAGCACAGUGUCAUGGACAGAAGGGCAGAGCAA	1.98
AGUUACCACCGGGAGCUCCAGCACAGUGAAAUGGUCAGAAGGGCAGAGCAA	0.475
AGUUACCACCGGGAGCUCCAGCACAGUGAAAUGGGCAGAAGGGCAGAGCAA	0.89
AGUUACCACCGGGAGCUCCAGCACAGUGAAAUGGCCAGAAGGGCAGAGCAA	0.917
AGUUACCACCGGGUUCUCCAGCACAGUGAAAUGGACAGAAGGGCAGAGCAA	0.953
AGUUACCACCGGGUACUCCAGCACAGUGAAAUGGACAGAAGGGCAGAGCAA	0.514
AGUUACCACCGGGUCCUCCAGCACAGUGAAAUGGACAGAAGGGCAGAGCAA	1.01
AGUUACCACCGGGAGCUCCAGCACAGUGAAAUGGUUAGAAGGGCAGAGCAA	0.0422
AGUUACCACCGGGAGCUCCAGCACAGUGAAAUGGUAAGAAGGGCAGAGCAA	0.00832
AGUUACCACCGGGAGCUCCAGCACAGUGAAAUGGUGAGAAGGGCAGAGCAA	0.19
AGUUACCACCGGGAGCUCCAGCACAGUGAAAUGGCUAGAAGGGCAGAGCAA	0.244

Variant	exon inclusion enrichment index
AGUUACCACCGGGAGCUCCAGCACAGUGAAAUGGCGAGAAGGGCAGAGCAA	2.06
AGUUACCACCGGGAGCUCCAGCACAGUGAAAUGGCAAGAAGGGCAGAGCAA	1.46
AGUUACCACCGGGAGCUCCAGCACAGUGGAAUGGACAGAAGGGCAGAGCAA	3.4
AGUUACCACCGGGAGCUCCAGCACAGUGCAAUGGACAGAAGGGCAGAGCAA	2.01
AGUUACCACCGGGAGCUCCAGCACAGUGUAAUGGACAGAAGGGCAGAGCAA	0.801
AGUUACCACCGGGAGCUCCAGCACAGUGAAAUGGGUAGAAGGGCAGAGCAA	0.025
AGUUACCACCGGGAGCUCCAGCACAGUGAAAUGGGGAGAAGGGCAGAGCAA	0.306
AGUUACCACCGGGAGCUCCAGCACAGUGAAAUGGGAAGAAGGGCAGAGCAA	1.29
AGUUACCACCGGGAGCUCCAGCCGAGUGAAAUGGACAGAAGGGCAGAGCAA	3.75
AGUUACCACCGGGAGCUCCAGCCUAGUGAAAUGGACAGAAGGGCAGAGCAA	1.16
AGUUACCACCGGGAGCUCCAGCCAAGUGAAAUGGACAGAAGGGCAGAGCAA	2.48
AGUUACCACCGGGAGCUCCAGCGUAGUGAAAUGGACAGAAGGGCAGAGCAA	0.823
AGUUACCACCGGGAGCUCCAGCGGAGUGAAAUGGACAGAAGGGCAGAGCAA	3.83
AGUUACCACCGGGAGCUCCAGCGAAGUGAAAUGGACAGAAGGGCAGAGCAA	3.5
AGUUACCACCGGGAGCUCCAGCACAGUGCGAUGGACAGAAGGGCAGAGCAA	3.21
AGUUACCACCGGGAGCUCCAGCACAGUGCUAUGGACAGAAGGGCAGAGCAA	1.35
AGUUACCACCGGGAGCUCCAGCACAGUGCCAUGGACAGAAGGGCAGAGCAA	2.73
AGUUACCACCGGGAGCUCCAGCACGUUGAAAUGGACAGAAGGGCAGAGCAA	3.09
AGUUACCACCGGGAGCUCCAGCACGAUGAAAUGGACAGAAGGGCAGAGCAA	4.73
AGUUACCACCGGGAGCUCCAGCACGCUGAAAUGGACAGAAGGGCAGAGCAA	3.84
AGUUACCACCGGGAGCUCCAGCACAGUGAACGGGACAGAAGGGCAGAGCAA	2.85
AGUUACCACCGGGAGCUCCAGCACAGUGAACAGGACAGAAGGGCAGAGCAA	1.81
AGUUACCACCGGGAGCUCCAGCACAGUGAACCGGACAGAAGGGCAGAGCAA	3.58
AGUUACCACCGGGAGCUCCAGCACAGUGAAAUGGACGGAAGGGCAGAGCAA	3.3
AGUUACCACCGGGAGCUCCAGCACAGUGAAAUGGACCGAAGGGCAGAGCAA	3.08
AGUUACCACCGGGAGCUCCAGCACAGUGAAAUGGACUGAAGGGCAGAGCAA	1.97

Variant	exon inclusion enrichment index
AGUUACCACCGGGAGCUCCAGCACAGUGACAUGGACAGAAGGGCAGAGCAA	2.51
AGUUACCACCGGGAGCUCCAGCACAGUGAGAUGGACAGAAGGGCAGAGCAA	2.36
AGUUACCACCGGGAGCUCCAGCACAGUGAUAUGGACAGAAGGGCAGAGCAA	1.71
AGUUACCACCGGGAGCUCCUGCACAGUGAAAUGGACAGAAGGGCAGAGCAA	2.38
AGUUACCACCGGGAGCUCCGGCACAGUGAAAUGGACAGAAGGGCAGAGCAA	2.79
AGUUACCACCGGGAGCUCCCGCACAGUGAAAUGGACAGAAGGGCAGAGCAA	1.81
AGUUACCACCGGGAGCUCCAGCACGGUGAAAUGGACAGAAGGGCAGAGCAA	3.43
AGUUACCACCGGGAGCUCCAGCACCGUGAAAUGGACAGAAGGGCAGAGCAA	4.03
AGUUACCACCGGGAGCUCCAGCACUGUGAAAUGGACAGAAGGGCAGAGCAA	2.57
AGUUACCACCGGGAGCUCCAGCUCAGUGAAAUGGACAGAAGGGCAGAGCAA	1.81
AGUUACCACCGGGAGCUCCAGCGCAGUGAAAUGGACAGAAGGGCAGAGCAA	3.56
AGUUACCACCGGGAGCUCCAGCCCAGUGAAAUGGACAGAAGGGCAGAGCAA	1.89
AGUUACCACCGGGAGCUCCAGCUAAGUGAAAUGGACAGAAGGGCAGAGCAA	1.02
AGUUACCACCGGGAGCUCCAGCUGAGUGAAAUGGACAGAAGGGCAGAGCAA	2.69
AGUUACCACCGGGAGCUCCAGCUUAGUGAAAUGGACAGAAGGGCAGAGCAA	0.272
AGUUACCACCGGGAGCUCCAGCACUUUGAAAUGGACAGAAGGGCAGAGCAA	1.75
AGUUACCACCGGGAGCUCCAGCACUCUGAAAUGGACAGAAGGGCAGAGCAA	2.25
AGUUACCACCGGGAGCUCCAGCACUAUGAAAUGGACAGAAGGGCAGAGCAA	2.39
AGUUACCACCGGGAGCUCCAGCACAGUGAAAUGGACCUAAGGGCAGAGCAA	1.6
AGUUACCACCGGGAGCUCCAGCACAGUGAAAUGGACCCAAGGGCAGAGCAA	2.35
AGUUACCACCGGGAGCUCCAGCACAGUGAAAUGGACCAAAGGGCAGAGCAA	2.05
AGUUACCACCGGGAGCUCCAGCACAGUGACGUGGACAGAAGGGCAGAGCAA	3.4
AGUUACCACCGGGAGCUCCAGCACAGUGACUUGGACAGAAGGGCAGAGCAA	2.21
AGUUACCACCGGGAGCUCCAGCACAGUGACCUGGACAGAAGGGCAGAGCAA	3.14
